Results on twelve molecules are retold here after US20250042994A1 (HAINAN SIMCERE ZAIMING PHARMACEUTICAL, published 2025).

Experiment [1] concerns the target T1, human CD19 exon1-3-His tag protein (human, UniProt P15391 20-186, limits assumed).
T1 construct: membrane-distal part of the extracellular region, made in HEK293E cells; not shown: His tag
T1 sequence (looked up): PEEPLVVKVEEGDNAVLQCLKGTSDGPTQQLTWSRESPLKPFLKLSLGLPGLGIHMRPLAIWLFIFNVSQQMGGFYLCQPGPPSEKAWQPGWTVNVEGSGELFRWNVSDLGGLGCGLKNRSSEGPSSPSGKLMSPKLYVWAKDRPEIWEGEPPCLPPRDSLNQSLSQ
Nature of the experiment: ELISA on coated human CD19 exon 1-3-His. As to the method:
Human CD19-his protein (purchased from ACROBiosystems, catalog number: CD9-H52H2) was diluted with PBS to a final concentration of 4 μg/mL, and then added to a 96-well ELISA plate at 100 μl/well. The plate was sealed with a plastic film and incubated overnight at 4° C., the plate was washed 2 times with PBS the next day, and then a blocking solution [PBS+2% (w/w) BSA] was added for blocking at room temperature for 2 h. The blocking solution was poured off, and 100 nM gradiently diluted CD19 chimeric antibody or control antibody was added at 50 μl/well. After incubation at 37° C. for 2 h, the plate was washed 3 times with PBS. […] TMB substrate was added at 50 μl/well, and incubated at room temperature for 10 min, and then a stop solution (1.0 N HCl) was added at 50 μl/well. The OD450 nm values were read by an ELISA microplate reader (Multimode Plate Reader, EnSight, purchased from Perkin Elmer).
CD19 protein contains 4 exons in the extracellular region, in which exons 1-3 are located at the membrane-distal end and exon 4 is located at the membrane-proximal end. […] To identify the distribution of antigen binding epitopes of the chimeric antibodies, human CD19 exon 1-3-His (membrane-distal end) was used to coat at 2 μg/mL according to the ELISA method in example 5.1.
(In general: An ELISA detects its analyte on a solid surface through an enzyme-linked reagent.)

Another experiment deals with T2, Human CD19-his protein (human, UniProt P15391 20-291).
T2 construct: bought protein; also called recombinant human CD19-His; CD19 full-length protein; not shown: His tag
T2 sequence (looked up): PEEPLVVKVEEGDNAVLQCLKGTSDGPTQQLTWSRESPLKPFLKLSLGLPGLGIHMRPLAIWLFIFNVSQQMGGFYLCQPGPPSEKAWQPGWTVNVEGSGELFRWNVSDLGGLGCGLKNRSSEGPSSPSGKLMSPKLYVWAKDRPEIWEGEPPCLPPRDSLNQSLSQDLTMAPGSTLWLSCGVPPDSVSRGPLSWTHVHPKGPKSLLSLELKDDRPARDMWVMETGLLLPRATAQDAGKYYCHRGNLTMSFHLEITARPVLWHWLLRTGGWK
The experiment is described as follows: SPR Biacore, Ab captured on Protein A, CD19-His analyte. As to the method: A sample buffer and a running buffer were HBS-EP+ (10 mM HEPES, 150 mM NaCl, 3 mM EDTA and 0.05% surfactant P20) (GE Healthcare; BR-1006-69). The flow-through cell was set to 25° C. The sample block was set to 16° C. Both were pretreated with the running buffer. In each cycle, an antibody to be detected was first captured with a Protein A chip, and then a single concentration of CD19 antigen protein was injected. The binding and dissociation processes of the antibody and the antigen protein were recorded, and finally Glycine pH 1.5 (GE Healthcare; BR-1003-54) was used to complete chip regeneration. The binding was measured by injecting different concentrations of recombinant human CD19-His proteins in a solution for 240 s with a flow rate of 30 μl/min. The concentration started from 200 nM (see the detailed results for the actual concentration in the test) and was diluted at 1:1, making a total of 5 concentrations. The dissociation phase was monitored for up to 600 s and was triggered by switching from sample solution to running buffer. The surface was regenerated by washing with a 10 mM glycine solution (pH 1.5) for 30 s at a flow rate of 30 μl/min. Bulk refractive index difference was corrected by subtracting the response obtained from the goat anti-human Fc surface. Blank injection was also subtracted (=double reference). For calculation of apparent KD and other kinetic parameters, Langmuir 1:1 model was used.

B1: F3.64.4 (antibody, human IgG1, V domains shown)
VH: EVQLQQSGPELVKPGASVKISCKASGYTFTDYHINWVKQSHGKSPEWIGDINPNNGGTTYNQKFKDKATLTVDKSSSTAFMELRSLTSEDSAVYYCARFITTVVAWYFDVWGTGTTVTVSS
VL: DIQMTQSPASLSVSVGETVTITCRASENIYSNLAWYQQKQGKSPQLLVYAATNLADGVPSRFSGSGSGTQYSLKINSLQSEDFGNYYCQRFWDTPRTFGGGTKLEIK
notes: human-murine chimeric antibody, human IgG1 constant
For orientation: Kd means the equilibrium constant for the complex coming apart. Low values mean higher affinity, high ones lower affinity. As a reminder, the koff is the first-order rate constant of dissociation. A lower koff goes with slow dissociation. The term kon denotes a measure of how fast the partners come together. Read a low kon as slower complex formation. Turning to B1, the binding result in experiment [1] is “no binding (tested: 100 nM)”. In the experiment with Human CD19-his protein, binding was characterised by a dissociation constant (Kd) of 1.64 nM, the koff was 0.000313 s⁻¹ and the kon worked out at 191000 M⁻¹ s⁻¹.

B2: F2.15.26 (antibody, human IgG1, V domains shown)
VH: QVQLKESGPGLVAPSQSLSITCTVSGFSLTDYGVSWIRQSPGKGLEWLGVIWGSGDTYYNSVLESRLSINKDNSKNQVFLKMNSLQTDDAAMYFCAKHSYYGGSFAMDYWGQGTSVTVSS
VL: DIQMTQTTSSLSASLGDRVTISCRASQDISNYLNWYQQKPDGTVKLLIYYTSRLHSGVPSRFSGSGSGTDYSLTISNLEQEDIATYFCQQGKTLPWTFGGGTKLEIK
notes: as for B1
As to B2, in experiment [1], the binding result is reported as “no binding (tested: 100 nM)”. In the experiment with Human CD19-his protein, this molecule showed a Kd of 0.839 nM, a koff of 0.000229 s⁻¹ and a kon of 273000 M⁻¹ s⁻¹.

B3: F6.2.9 (antibody, human IgG1, V domains shown)
VH: QVQLQQSGAELVKPGASVKISCKASGYAFSSYWMNWVKQRPGKGLEWIGQIYPGDGDTNYNGKFKGKATLTADKSSSTGYMQLSSLTSEDSAVYFCARSRITSVVDWYFDVWGTGTTVTVSS
VL: QIVLSQSPAILSASPGEKVTMTCRASSSVSYMHWYQQKPGSSPKPWIYATSNLASGVPARFSGSGSGTSYSLTISRVEAEDAATYYCQQWSSNPPTFGAGTKLELK
notes: as for B1
Turning to B3, the binding result in experiment [1] is recorded as “no binding (tested: 100 nM)”. Moreover, in the experiment with Human CD19-his protein, binding was put at a Kd of 21.7 nM, the koff was determined as 0.0033 s⁻¹ and the kon was determined as 152000 M⁻¹ s⁻¹.

B4: F6.5.20 (antibody, human IgG1, V domains shown)
VH: QVQLQQPGAELVKPGASVKLSCKASGYTFTSYWMQWVKQRPGQGLEWIGEIDPSDSYTNYNQKFKGKASLTVDTSSSTAYMQLSSLTSEDSAVYYCARWGLLRNYYVMDYWGQGTSVTVSS
VL: EIVLTQSPTTMAASPGEKITITCSASSSISSNYLHWYQQKPGFSPKLLIYRTSNLASGVPARFSGSGSGTSYSLTIGTMEAEDVATYYCQQGSSIPRMLTFGAGTKLELK
notes: as for B1
As to B4, in experiment [1], the binding result is on record as “no binding (tested: 100 nM)”. Moreover, in the experiment with Human CD19-his protein, binding was put at a Kd of 5.28 nM, the koff came to 0.00187 s⁻¹ and the kon came to 355000 M⁻¹ s⁻¹.

B5: F3.81.2 (antibody, human IgG1, V domains shown)
VH: QVQLQQPGAELVMPGASVKLSCKASAYTFTNYWMHWVKQRPGHGLEWIGEIDPSDSYTDYNQNFKAKATLTVDKSSSTAYMQLSSLTSEDSAVYYCARLMGRYFDVWGTGTTVTVSS
VL: DIVMTQSHKFMSTSVGDRVSITCKASQDVSAAVAWYQQKPGQSPKLLINSASYRYTGVPDRFTGSGSGTDFTFTISSVQAEDLAVYYCQQHYSTPLTFGAGTKLELR
notes: as for B1
Turning to B5, the binding result in experiment [1] is “no binding (tested: 100 nM)”. In the experiment with Human CD19-his protein, this molecule registered a Kd of 0.766 nM, a koff of 0.000104 s⁻¹ and a kon of 135000 M⁻¹ s⁻¹.

B6: F4.276.12 (antibody, human IgG1, V domains shown)
VH: EIQLQQSGPELVKPGASVKVSCKASGYAFSAYNMYWVKQSHGKSLEWIGYIDPYNGGTNYNQKFKGKATLTVDKSSSTAYMHLNSLTSEDSAVYYCARDGYEVTYWGQGTLVTVSA
VL: QIVLTQSPALMSASLGEEITLTCSASSSVTYMHWSQQKSGTSPRLLIYSTSNLASGVPSRFSGSGSGTFYSLTISSVEAEDAADYYCHQWSSYPWTFGGGTKLEIK
notes: as for B1
Take B6: the binding result in experiment [1] is “no binding (tested: 100 nM)”. In the experiment with Human CD19-his protein, this molecule yielded a Kd of 3.33 nM, a koff of 0.00081 s⁻¹ and a kon of 243000 M⁻¹ s⁻¹.

B7: F6.12.12 (antibody, human IgG1, V domains shown)
VH: DVQLQESGPGLVKPSQSLSLTCSVTGYSITSGYYWIWIRQFPGNKLEWMGYISYDASNKYKPSLKNRISITRDTSKNQFFLKLNSVTAEDTATYFCAREDLRGYFDVWGTGTSVTVSS
VL: DIVLTQSPASLAVSLGRRATISCRASQSVSTSGFSYMHWYQQKPGQPPNLLIKYASILQSGVPARFSGSGSGTDFILNIHPVEDVDTATYYCQHSWGIPFTFGSGTKLEIK
notes: as for B1
On to B7, for which the binding result in experiment [1] was “no binding (tested: 100 nM)”. For the same molecule, in the experiment with Human CD19-his protein, the affinity, expressed as Kd, was 1.46 nM; the koff was 0.000245 s⁻¹; the kon is 167000 M⁻¹ s⁻¹.

B8: F1-mab003 (antibody, human IgG1, V domains shown)
VH: EVQLQQSGPELVKPGASVKMSCKASGYTFTDYVMHWVRQTPGQGLEWIGYFNPYNDGTNYNEKFKVKATLTSDKSSTTAYMELSSLTSEDSAVYYCARGVYYYGRDFDYWGQGTTLTVSS
VL: DVVLTQTPLSLPVSLGDQASISCRSSQSLENSNGNSYLNWYLQKPGQSPQLLIYRVSNRFSGVLDRFSGSGSGTDFTLKISRVEAEDLGVYFCLQITHVPWTFGGGTKLEIK
notes: as for B1
Turning to B8, the binding result in experiment [1] is “no binding (tested: 100 nM)”. In the experiment with Human CD19-his protein, this molecule came in with a dissociation constant (Kd) of 0.247 nM, a koff of 0.000111 s⁻¹ and a kon of 450000 M⁻¹ s⁻¹.

B9: F3.5.1 (antibody, human IgG1, V domains shown)
VH: QAQLQQSGPELVKPGASVKISCKASGYAFSGSWMNWVQQRPGKGLEWIGRIYPGDGDTYYNGKFKDKAILTADKSSSTAYMQLSSLTSEDSAVYFCAQLRYRYVMDYWGQGTSVTVSS
VL: DIVLTQSPASLAVSLGQRATISCRASESVSIHGSHLMHWYQQKPGQPPRLLIYAASNLESGVPARFSGSGSETDFTLNIHPVEEEDAATYFCQQGIKDPYTFGGGTKLEIK
notes: as for B1
Regarding B9, the binding result in experiment [1] is “no binding (tested: 100 nM)”. Besides, in the experiment with Human CD19-his protein, the Kd is 0.543 nM, the koff is 8.47e-05 s⁻¹ and the on-rate (kon) worked out at 156000 M⁻¹ s⁻¹.

B10: F3.40.14 (antibody, human IgG1, V domains shown)
VH: QAQLQQSGPELVKPGASVKISCKASGYAFSGSWMNWVQQRPGKGLEWIGRIYPGDGDTYYSGKFKDKAILTADTSSSTAYMQLSSLTSEDSAVYFCAQLRSRYVMDYWGQGASVTVSS
VL: DIVLTQSPASLAVSLGQRATISCRASESVSIHGTHLMHWYQQKPGQPPRLLIYAASNLESGVPARFSGSGSETDFTLNIHPVEEEDAATYFCQQGIDDPYTFGGGTKLEIK
notes: as for B1
For B10, the binding result in experiment [1] is “no binding (tested: 100 nM)”. Moreover, in the experiment with Human CD19-his protein, binding was characterised by a dissociation constant (Kd) of 1.7 nM, the koff was 0.000143 s⁻¹ and the kon was determined as 84300 M⁻¹ s⁻¹.

B11: F3.3.10 (antibody, human IgG1, V domains shown)
VH: DVQLQESGPGLAKLSQSLSLTCSVTGYSITSGYYWNWIRQFPGNKLEWMGHISYDGNNNYNPSLKNRISITRDTSKNQFFLKLNSVTTEDTATYYCARENYSNYYFDYWGQGTTLTVSS
VL: DIVLTQSPASLAVSLGQRATISCRASQSVSKSSYTYIHWYQQKPGQPPKLLIKYASILQSGVPARFSGSGSGTDFTLNFHPVEEEDTATYYCQHSWEIPYTFGGGTKLEIK
notes: as for B1
With B11, the binding result in experiment [1] was “no binding (tested: 100 nM)”. Moreover, in the experiment with Human CD19-his protein, the equilibrium dissociation constant (Kd) was found to be 8.47 nM, the koff was determined as 0.000621 s⁻¹ and the kon is 73400 M⁻¹ s⁻¹.

B12: F3.13.2 (antibody, human IgG1, V domains shown)
VH: DVQLQESGPGLMKPSQSLSLTCSVTGYSITSGYYWNWIRQFPGNKLEWMGYISYDGSNNYNPSLKNRFSITRDTSKNQFFLKLNSVTTEDTATYYCARRKLTGGPYFDYWGQGTTLTVSS
VL: DIVLTQSPASLAVTLGQRATISCRASESVSFHGFHIMHWYQQKPGQPPKLLIYAASHLVSGVPDRFSGSGSETDFTLNIHPVEEEDAAAYFCQQSVEDPWTFGGGTKLEIK
notes: as for B1
Regarding B12, the binding result in experiment [1] is on record as “no binding (tested: 100 nM)”. In the experiment with Human CD19-his protein, this molecule returned a Kd of 8.13 nM, a koff of 0.000526 s⁻¹ and a kon of 64700 M⁻¹ s⁻¹.
